# Where no end group is shown, it is not given here.
# T1: CMKLR1 (UniProt Q99788 1-373, limits assumed)
# T1 sequence (looked up): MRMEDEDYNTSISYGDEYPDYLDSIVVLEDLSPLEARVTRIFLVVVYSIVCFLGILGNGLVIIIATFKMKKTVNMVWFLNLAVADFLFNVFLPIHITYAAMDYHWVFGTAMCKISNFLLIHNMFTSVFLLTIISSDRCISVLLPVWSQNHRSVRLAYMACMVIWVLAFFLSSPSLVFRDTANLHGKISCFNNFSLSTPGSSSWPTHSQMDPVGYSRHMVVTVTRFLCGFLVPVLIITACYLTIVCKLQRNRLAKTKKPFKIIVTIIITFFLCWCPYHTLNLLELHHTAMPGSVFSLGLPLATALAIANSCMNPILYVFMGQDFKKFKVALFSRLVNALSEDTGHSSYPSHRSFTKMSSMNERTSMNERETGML
# T2: NPY1R (UniProt P25929 1-384)
# T2 sequence (looked up): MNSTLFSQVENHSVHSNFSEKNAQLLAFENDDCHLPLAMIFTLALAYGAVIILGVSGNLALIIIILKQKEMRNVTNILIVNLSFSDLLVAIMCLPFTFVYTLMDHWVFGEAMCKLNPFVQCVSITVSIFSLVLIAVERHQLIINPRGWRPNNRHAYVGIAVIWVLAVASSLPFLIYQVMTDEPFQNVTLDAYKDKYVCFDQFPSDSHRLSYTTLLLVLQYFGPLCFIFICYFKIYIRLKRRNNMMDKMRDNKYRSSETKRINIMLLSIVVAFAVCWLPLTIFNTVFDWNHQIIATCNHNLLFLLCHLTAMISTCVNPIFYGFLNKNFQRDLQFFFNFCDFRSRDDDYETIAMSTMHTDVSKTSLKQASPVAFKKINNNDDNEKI
# T3: VIPR2 (UniProt P41587 24-438)
# T3 sequence (looked up): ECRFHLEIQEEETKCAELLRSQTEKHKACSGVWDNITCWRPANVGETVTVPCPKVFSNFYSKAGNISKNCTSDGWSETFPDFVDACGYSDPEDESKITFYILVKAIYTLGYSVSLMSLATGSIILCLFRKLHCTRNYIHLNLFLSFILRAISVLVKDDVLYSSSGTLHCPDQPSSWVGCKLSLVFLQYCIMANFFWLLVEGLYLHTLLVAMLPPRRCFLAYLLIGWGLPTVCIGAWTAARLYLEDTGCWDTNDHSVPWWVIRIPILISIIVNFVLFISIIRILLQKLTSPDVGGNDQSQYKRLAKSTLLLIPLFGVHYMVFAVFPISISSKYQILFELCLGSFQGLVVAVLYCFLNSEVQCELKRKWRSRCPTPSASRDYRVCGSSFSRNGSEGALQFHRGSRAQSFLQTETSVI
# T4: CCR7 (UniProt P32248 25-378)
# T4 sequence (looked up): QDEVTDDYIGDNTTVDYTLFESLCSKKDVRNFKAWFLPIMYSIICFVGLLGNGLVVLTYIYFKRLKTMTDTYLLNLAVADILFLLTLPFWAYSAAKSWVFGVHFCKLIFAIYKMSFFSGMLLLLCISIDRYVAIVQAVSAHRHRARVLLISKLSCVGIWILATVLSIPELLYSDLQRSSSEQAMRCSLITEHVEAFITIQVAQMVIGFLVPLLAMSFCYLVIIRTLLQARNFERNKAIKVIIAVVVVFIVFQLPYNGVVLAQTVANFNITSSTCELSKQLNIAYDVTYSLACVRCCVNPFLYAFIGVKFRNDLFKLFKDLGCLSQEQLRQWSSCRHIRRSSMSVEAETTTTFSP
# T5: GPR103 (UniProt Q96P65 1-431)
# T5 sequence (looked up): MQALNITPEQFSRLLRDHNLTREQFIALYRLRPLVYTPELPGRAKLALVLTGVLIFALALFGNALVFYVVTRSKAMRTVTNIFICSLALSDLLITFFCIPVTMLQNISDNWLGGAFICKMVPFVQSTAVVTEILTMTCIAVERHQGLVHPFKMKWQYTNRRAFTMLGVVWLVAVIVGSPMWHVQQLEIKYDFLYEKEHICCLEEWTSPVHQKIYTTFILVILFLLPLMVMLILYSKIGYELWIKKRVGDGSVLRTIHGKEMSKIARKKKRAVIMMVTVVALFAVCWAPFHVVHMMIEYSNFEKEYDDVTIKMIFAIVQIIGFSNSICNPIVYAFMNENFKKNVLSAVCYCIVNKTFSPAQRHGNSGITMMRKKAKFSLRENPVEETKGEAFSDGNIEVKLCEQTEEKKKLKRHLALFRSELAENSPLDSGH
# T6: ADCYAP1R1 (UniProt P41586 21-468, limits assumed)
# T6 sequence (looked up): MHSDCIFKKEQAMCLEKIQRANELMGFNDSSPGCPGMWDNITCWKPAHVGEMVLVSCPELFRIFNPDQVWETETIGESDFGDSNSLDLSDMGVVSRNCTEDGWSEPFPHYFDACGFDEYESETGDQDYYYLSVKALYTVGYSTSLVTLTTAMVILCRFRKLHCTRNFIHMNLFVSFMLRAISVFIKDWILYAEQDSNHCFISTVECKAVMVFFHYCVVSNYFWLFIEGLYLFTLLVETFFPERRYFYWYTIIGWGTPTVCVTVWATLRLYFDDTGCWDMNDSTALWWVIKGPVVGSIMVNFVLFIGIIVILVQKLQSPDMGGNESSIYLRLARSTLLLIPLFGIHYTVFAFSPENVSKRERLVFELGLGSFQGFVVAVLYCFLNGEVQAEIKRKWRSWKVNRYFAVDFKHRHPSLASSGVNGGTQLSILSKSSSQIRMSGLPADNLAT
# Experiments:
# Test in all cases: cell-based or functional assay
# CMKLR1 = molecular target: T1, CMKLR1
# NPY1R = molecular target: T2, NPY1R
# GLP1R = GLP1R (UniProt P43220 24-463)
# LTB4R = LTB4R (UniProt Q15722 1-352)
# VIPR2 = molecular target: T3, VIPR2
# CCR7 = molecular target: T4, CCR7
# CNR2 = CNR2 (UniProt P34972 1-360)
# GPR103 = molecular target: T5, GPR103
# MLNR = MLNR (UniProt O43193 1-412)
# CNR1 = CNR1 (UniProt P21554 1-472)
# ADCYAP1R1 = molecular target: T6, ADCYAP1R1
# Chain of GLP1R (P43220 24-463 limits assumed): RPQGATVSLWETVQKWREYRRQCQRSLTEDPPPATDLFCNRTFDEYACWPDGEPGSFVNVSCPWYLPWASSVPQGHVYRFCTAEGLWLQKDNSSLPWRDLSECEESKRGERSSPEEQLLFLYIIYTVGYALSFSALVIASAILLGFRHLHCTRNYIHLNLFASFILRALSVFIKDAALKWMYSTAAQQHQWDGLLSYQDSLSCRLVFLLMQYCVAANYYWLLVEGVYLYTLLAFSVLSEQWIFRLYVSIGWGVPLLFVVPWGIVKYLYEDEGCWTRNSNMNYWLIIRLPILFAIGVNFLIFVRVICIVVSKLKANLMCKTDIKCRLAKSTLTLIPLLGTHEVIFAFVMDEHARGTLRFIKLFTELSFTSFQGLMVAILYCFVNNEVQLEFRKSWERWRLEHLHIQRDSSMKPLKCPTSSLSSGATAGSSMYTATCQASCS
# Chain of LTB4R (Q15722 whole entry): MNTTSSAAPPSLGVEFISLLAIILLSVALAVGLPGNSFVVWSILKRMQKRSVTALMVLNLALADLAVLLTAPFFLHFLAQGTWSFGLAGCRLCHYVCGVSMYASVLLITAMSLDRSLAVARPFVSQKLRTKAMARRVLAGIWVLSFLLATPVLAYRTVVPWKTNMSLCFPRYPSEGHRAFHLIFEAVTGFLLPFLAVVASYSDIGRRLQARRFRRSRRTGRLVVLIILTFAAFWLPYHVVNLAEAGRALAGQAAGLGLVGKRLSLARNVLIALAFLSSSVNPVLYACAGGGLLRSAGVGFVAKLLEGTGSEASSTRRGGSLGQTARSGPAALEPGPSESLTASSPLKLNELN
# Chain of CNR2 (P34972 whole entry): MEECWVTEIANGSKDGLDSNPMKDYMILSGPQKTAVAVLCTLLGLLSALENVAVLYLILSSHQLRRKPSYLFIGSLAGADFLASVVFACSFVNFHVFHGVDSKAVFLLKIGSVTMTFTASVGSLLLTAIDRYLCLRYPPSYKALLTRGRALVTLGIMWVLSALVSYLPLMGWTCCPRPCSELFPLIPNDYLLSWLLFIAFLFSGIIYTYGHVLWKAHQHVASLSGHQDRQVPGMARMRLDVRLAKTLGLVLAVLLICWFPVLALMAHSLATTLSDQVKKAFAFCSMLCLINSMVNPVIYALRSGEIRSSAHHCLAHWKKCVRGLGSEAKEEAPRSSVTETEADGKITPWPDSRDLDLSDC
# Chain of MLNR (O43193 whole entry): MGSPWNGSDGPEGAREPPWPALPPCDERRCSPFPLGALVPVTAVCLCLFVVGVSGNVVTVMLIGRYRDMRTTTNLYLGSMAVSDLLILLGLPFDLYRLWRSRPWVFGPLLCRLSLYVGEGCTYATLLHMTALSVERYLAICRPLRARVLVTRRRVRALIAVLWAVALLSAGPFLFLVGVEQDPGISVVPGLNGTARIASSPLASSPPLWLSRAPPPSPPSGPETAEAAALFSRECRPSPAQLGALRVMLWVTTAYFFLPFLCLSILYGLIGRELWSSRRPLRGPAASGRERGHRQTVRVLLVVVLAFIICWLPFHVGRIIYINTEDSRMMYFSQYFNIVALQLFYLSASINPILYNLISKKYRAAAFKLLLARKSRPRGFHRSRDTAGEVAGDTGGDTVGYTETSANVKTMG
# Chain of CNR1 (P21554 whole entry): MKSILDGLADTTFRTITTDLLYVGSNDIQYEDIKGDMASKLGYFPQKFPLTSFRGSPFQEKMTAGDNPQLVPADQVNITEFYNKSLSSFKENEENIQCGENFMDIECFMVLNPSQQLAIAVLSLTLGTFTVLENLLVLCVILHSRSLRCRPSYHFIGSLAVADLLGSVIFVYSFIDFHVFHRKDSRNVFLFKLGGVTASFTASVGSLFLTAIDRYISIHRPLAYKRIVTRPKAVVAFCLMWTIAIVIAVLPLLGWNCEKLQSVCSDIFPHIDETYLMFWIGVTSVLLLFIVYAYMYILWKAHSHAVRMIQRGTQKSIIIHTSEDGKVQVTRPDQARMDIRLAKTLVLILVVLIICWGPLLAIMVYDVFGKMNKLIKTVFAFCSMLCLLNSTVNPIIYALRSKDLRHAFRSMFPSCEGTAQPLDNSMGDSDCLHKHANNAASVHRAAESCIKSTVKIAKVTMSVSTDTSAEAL
binder,measurement,setting,value
"QATVGDVNTDRPGLLDLK (also: synthesised on Rink amide resin, C-terminal amide not given here outright) [octadecaneuropeptide (ODN)]","% Activity, arrestin, antagonist mode, 2.5 uM",CMKLR1,-18.3%
same,"% Activity, arrestin, antagonist mode, 2.5 uM",NPY1R,-2.7%
same,"% Activity, arrestin, antagonist mode, 2.5 uM",GLP1R,-11%
same,"% Activity, arrestin, antagonist mode, 2.5 uM",LTB4R,10.3%
same,"% Activity, arrestin, antagonist mode, 2.5 uM",VIPR2,-6.7%
same,"% Activity, arrestin, antagonist mode, 2.5 uM",CCR7,-19.2%
same,"% Activity, arrestin, antagonist mode, 2.5 uM",CNR2,3.6%
same,"% Activity, arrestin, antagonist mode, 2.5 uM",GPR103,14.6%
same,"% Activity, arrestin, antagonist mode, 2.5 uM",MLNR,-5.5%
same,"% Activity, arrestin, antagonist mode, 2.5 uM",CNR1,-37.5%
same,"% Activity, arrestin, antagonist mode, 2.5 uM",ADCYAP1R1,0.9%

# — patent publication US20260184748A1 (University of Pennsylvania, published 2026)
